Laboratory results from publication doi:10.1101/2022.04.11.487660 (bioRxiv, 2022).

Molecular target: lysozyme (UniProt P00698)
Experiment: ELISA

B1: camel nanobody 1ZVH, displayed on phage (VHH)
VHH: DVQLVESGGGSVQAGGSLRLSCAASGYIASINYLGWFRQAPGKEREGVAAVSPAGGTPYYADSVKGRFTVSLDNAENTVYLQMNSLKPEDTALYYCAAARQGWYIPLNSYGYNYWGQGTQVTVSS
  binding result: binds
